The values below come from article doi:10.1101/2023.10.09.561484.

The target in assay [1] is EGFP-Pro(K10R) (Streptomyces mobaraensis). As to the kind of experiment: BLI. (In BLI a coated tip is dipped into the sample, and binding shifts an interference pattern.)
Assay [2] deals with EGFP-Pro(K10R/Y12A) (Streptomyces mobaraensis). Kind of assay: BLI.

B1: ΔproMTG lacking the C-terminal His-tag (recombinant mature microbial transglutaminase) (enzyme)
chain: DSDDRVTPPAEPLDRMPDPYRPSYGRAETVVNNYIRKWQQVYSHRDGRKQQMTEEQREWLSYGCVGVTWVNSGQYPTNRLAFASFDEDRFKNELKNGRPRSGETRAEFEGRVAKESFDEEKGFQRAREVASVMNRALENAHDESAYLDNLKKELANGNDALRNEDARSPFYSALRNTPSFKERNGGNHDPSRMKAVIYSKHFWSGQDRSSSADKRKYGDPDAFRPAPGTGLVDMSRDRNIPRSPTSPGEGFVNFDYGWFGAQTEADADKTVWTHGNHYHAPNGSLGAMHVYESKFRNWSEGYSDFDRGAYVITFIPKSWNTAPDKVKQGWP
As to B1, the Kd (commonly the equilibrium constant for the complex coming apart) stood at 0.019 µM in assay [1] and 7.85 µM in assay [2].
